Measurements published in article PMC12126490, “The HP1 box of KAP1 organizes HP1α for silencing of endogenous retroviral elements in embryonic stem cells” (Nature Communications, 2025).

What was measured:
[1] = tested on: endogenous retroelements in KAP1 cKO ESCs; assay: ATAC-seq chromatin accessibility; assay type: cell-based, mouse; settings: exogenous expression in KAP1 cKO ESCs, 2 μg/mL doxycycline, 2 μM 4-OHT 48 h
Description: ESCs were maintained under standard conditions on gelatin-coated plates at 37 °C at 5% CO2 in Knockout DMEM (Thermo Fisher) supplemented with NEAA, GlutaMAX, penicillin/streptomycin (Thermo Fisher), 15% ESC-screened fetal bovine serum (Hyclone), 0.1 mM 2-mercaptoethanol (Fisher), and leukemia-inhibitory factor (LIF). Generation of KAP1 cKO ESCs has been described previously. The piggybac transposon system was used to stably integrate transgenic Flag-tagged WT or V488E mutant KAP1 under control of an rtTA promoter (Systems Biosciences, PB-TRE-EGFP-EF1a-rtTA) into the inducible KAP1 cKO ESCs. Exogenous expression of WT or V488E mutant KAP1 was induced with 2 μg/mL doxycycline for 48 h and maintained in doxycycline prior to endogenous KAP1 deletion. KAP1 deletion was induced with 2 μM 4-OHT (Sigma) treatment for 48 h. […]
The modified ATAC-sequencing protocol Omni-ATAC was performed. […] Number of further PCR cycles required was determined using KAPA Library Quantification Kit (KK4854). […]
Quality of datasets was assessed using the FastQC tool. Raw reads were adapter and quality trimmed using Trimgalore. Trimmed reads were aligned to the mouse reference genome (mm10) with Bowtie2. Multimapping reads were randomly assigned. Optical duplicate reads were filtered using Picard (https://broadinstitute.github.io/picard/). Reads which mapped to the mitochondrial genome were removed with Samtools. […]

FL HP1α = assay: mass photometry, mixture of FL HP1α and FL KAP1 (Fig. 6g)
Description: For MP assays shown in Fig. 6g–I and Supplementary Fig. 12, FL KAP1 and FL HP1α were expressed and purified as described[38],[67]. MP measurements were performed on a Refeyn OneMP instrument (Refeyn Ltd). The calibration was done with a native marker protein standard mix (NativeMark Unstained Protein Standard, Thermo Scientific), which contains proteins ranging from 20 to 1200 kDa. Coverslips (24 × 50 mm, No. 1.5H, Marienfeld) were cleaned by sequential sonication in Milli-Q water, isopropanol and Milli-Q-water, followed by drying with nitrogen. For each acquisition 2 μL of protein solution was applied to 18 μL of buffer (10 mM HEPES pH 7.5, 150 mM NaCl) in a gasket (CultureWellTM Reusable Gasket, Grace Bio-Labs) on a coverslip. To capture the movie, 400 nM HP1α was diluted 10× and 200 nM KAP1 was diluted 10× for a final concentration of 40 nM and 20 nM, respectively. The final molar ratios of HP1α:KAP1 were 1:0, 1:1 and 2:1. Movies were recorded at 999 Hz with an exposure time of 0.95 ms by using the AcquireMP software (Refeyn Ltd). All mass photometry movies were processed and analysed in the DiscoverMP software (Refeyn Ltd).

B1: FL KAP1: full-length KAP1 (KRAB-associated protein 1, TRIM28, TIF1β) (protein)
chain: MAASAAAASAAAASAASGSPGPGEGSAGGEKRSTAPSAAASASASAAASSPAGGGAEALELLEHCGVCRERLRPEREPRLLPCLHSACSACLGPAAPAAANSSGDGGAAGDGTVVDCPVCKQQCFSKDIVENYFMRDSGSKAATDAQDANQCCTSCEDNAPATSYCVECSEPLCETCVEAHQRVKYTKDHTVRSTGPAKSRDGERTVYCNVHKHEPLVLFCESCDTLTCRDCQLNAHKDHQYQFLEDAVRNQRKLLASLVKRLGDKHATLQKSTKEVRSSIRQVSDVQKRVQVDVKMAILQIMKELNKRGRVLVNDAQKVTEGQQERLERQHWTMTKIQKHQEHILRFASWALESDNNTALLLSKKLIYFQLHRALKMIVDPVEPHGEMKFQWDLNAWTKSAEAFGKIVAERPGTNSTGPAPMAPPRAPGPLSKQGSGSSQPMEVQEGYGFGSGDDPYSSAEPHVSGVKRSRSGEGEVSGLMRKVPRVSLERLDLDLTADSQPPVFKVFPGSTTEDYNLIVIERGAAAAATGQPGTAPAGTPGAPPLAGMAIVKEEETEAAIGAPPTATEGPETKPVLMALAEGPGAEGPRLASPSGSTSSGLEVVAPEGTSAPGGGPGTLDDSATICRVCQKPGDLVMCNQCEFCFHLDCHLPALQDVPGEEWSCSLCHVLPDLKEEDGSLSLDGADSTGVVAKLSPANQRKCERVLLALFCHEPCRPLHQLATDSTFSLDQPGGTLDLTLIRARLQEKLSPPYSSPQEFAQDVGRMFKQFNKLTEDKADVQSIIGLQRFFETRMNEAFGDTKFSAVLVEPPPMSLPGAGLSSQELSGGPGDGP
Which “restoration of closed chromatin at IAPEz, MERVK10C and ETn” value [1] does the source give for B1 here?
Its value is “able to partially restore closed chromatin at IAPEz, MERVK10C and ETn elements”.

What about the “effect on oligomerization of HP1α” value (FL HP1α) of the same molecule?
The value was “Oligomerization of HP1α was further increased”.
